Data on 4 molecules can be found in doi:10.1101/2024.11.26.625551 (bioRxiv, 2024).

Series [1] deals with the molecule itself. Kind of series: crystal structure.
Series [2] has as its target endogenous CAV1 (HeLa) (Homo sapiens (HeLa), UniProt Q03135). Kind of series: co-IP.
The target in series [3] is endogenous Cavin1 (HeLa) (Homo sapiens (HeLa), UniProt Q6NZI2). Kind of series: co-IP.
The target of series [4] is zebrafish Cavin4b HR1 domain (Danio rerio, UniProt A0A8M1N3J3). In words: ITC. In general terms: In ITC the heat of successive injections is recorded.
Series [5] addresses mouse Cavin1 HR1 domain (His-Ub construct) (Mus musculus (Mouse)., UniProt O54724). In words: ITC.
Series [6] deals with GST-tagged mouse Cavin1 HR1 domain (Mus musculus, UniProt O54724). In words: pull-down.
Series [7] concerns the target mouse Cavin1 HR1 N-terminal fragment mC1-HR1(45-103) (Mus musculus, UniProt O54724). In words: ITC.
The target in series [8] is His-MBP full-length mouse Cavin1 (Mus musculus (Mouse)., UniProt O54724). In words: ITC.
Sequence of His-MBP full-length mouse Cavin1 (O54724 whole entry, the tested form may be a part): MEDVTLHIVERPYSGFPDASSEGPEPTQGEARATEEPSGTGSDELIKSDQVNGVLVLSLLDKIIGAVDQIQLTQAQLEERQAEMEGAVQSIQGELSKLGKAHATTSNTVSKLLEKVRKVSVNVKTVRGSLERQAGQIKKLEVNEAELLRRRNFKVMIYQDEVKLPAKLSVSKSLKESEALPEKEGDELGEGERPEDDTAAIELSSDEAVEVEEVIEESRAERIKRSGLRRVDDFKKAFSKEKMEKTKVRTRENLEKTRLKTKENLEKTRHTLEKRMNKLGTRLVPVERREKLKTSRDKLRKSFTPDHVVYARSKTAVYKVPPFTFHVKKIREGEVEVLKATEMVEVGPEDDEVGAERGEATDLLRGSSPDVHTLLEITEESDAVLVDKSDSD
Series [9] has as its target zebrafish Cavin4a HR1 domain (Danio rerio, UniProt A1L260). In words: ITC.

Sequence of endogenous Cavin1 (HeLa) (Q6NZI2 whole entry, the tested form may be a part): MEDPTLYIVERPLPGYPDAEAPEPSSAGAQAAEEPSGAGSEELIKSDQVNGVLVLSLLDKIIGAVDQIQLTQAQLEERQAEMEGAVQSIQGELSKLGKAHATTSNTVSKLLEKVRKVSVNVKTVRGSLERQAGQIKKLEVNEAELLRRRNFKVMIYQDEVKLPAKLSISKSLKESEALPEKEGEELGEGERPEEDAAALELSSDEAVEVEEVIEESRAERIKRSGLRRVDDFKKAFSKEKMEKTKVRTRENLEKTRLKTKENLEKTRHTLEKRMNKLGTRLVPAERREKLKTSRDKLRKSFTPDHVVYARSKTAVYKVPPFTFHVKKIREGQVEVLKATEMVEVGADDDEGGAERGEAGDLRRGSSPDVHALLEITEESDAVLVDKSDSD
Sequence of zebrafish Cavin4a HR1 domain (A1L260 whole entry, looked up, the tested form may be a part): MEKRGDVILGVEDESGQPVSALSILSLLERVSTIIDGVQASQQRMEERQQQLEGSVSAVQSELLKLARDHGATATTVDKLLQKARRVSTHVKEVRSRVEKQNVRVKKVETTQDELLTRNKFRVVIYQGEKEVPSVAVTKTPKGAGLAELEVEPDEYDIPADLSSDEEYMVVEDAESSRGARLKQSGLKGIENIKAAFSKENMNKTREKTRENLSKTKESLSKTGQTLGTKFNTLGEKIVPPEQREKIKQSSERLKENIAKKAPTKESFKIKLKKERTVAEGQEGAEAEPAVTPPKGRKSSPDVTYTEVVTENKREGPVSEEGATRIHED
Sequence of endogenous CAV1 (HeLa) (Q03135 whole entry): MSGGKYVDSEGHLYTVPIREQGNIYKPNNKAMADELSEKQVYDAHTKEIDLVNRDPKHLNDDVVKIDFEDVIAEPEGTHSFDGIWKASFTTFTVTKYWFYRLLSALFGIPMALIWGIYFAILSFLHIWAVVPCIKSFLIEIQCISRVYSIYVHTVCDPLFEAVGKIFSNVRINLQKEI

B1: mouse Cavin1 HR1 domain (as crystallised with NbB7) (domain or fragment, UniProt O54724 45-155, looked up)
chain: LIKSDQVNGVLVLSLLDKIIGAVDQIQLTQAQLEERQAEMEGAVQSIQGELSKLGKAHATTSNTVSKLLEKVRKVSVNVKTVRGSLERQAGQIKKLEVNEAELLRRRNFKV
As usually defined, the stoichiometry N is a count of units in the complex or per binding partner. Turning to B1, the “stoichiometry N” value in [1] worked out at 3.

B2: NbB7-GFP (VHH)
VHH: QVQLQESGGGLVQAGGSLRLSCAVSGIRVNVNAMYWYRQAPGKQRELVAIITTFGSTNYADSAKGRFTISRDNTKNTVYLQMDNLKPEDTAVYYCNAPQFTDRYWGQGTQVTVSS
Turning to B2, the binding result in series [2] and in series [3] was “binds” throughout.

B3: nanobody NbB7 (VHH)
VHH: QVQLQESGGGLVQAGGSLRLSCAVSGIRVNVNAMYWYRQAPGKQRELVAIITTFGSTNYADSAKGRFTISRDNTKNTVYLQMDNLKPEDTAVYYCNAPQFTDRYWGQGTQVTVSS
One may read the Kd as the constant that tells how readily two partners part at equilibrium. Lower therefore signals tighter binding. B3: in series [4], the binding result is recorded as “no binding”. The equilibrium dissociation constant (Kd) in series [5] is 520 nM.

B4: nanobody NbA12 (VHH)
VHH: QVQLQESGGGLVQAGGSLRLSCAASGFTFDDYAIGWFRQAPGKEREGVSCITSSDGSTYYADSVKGRFTISSDNAKNTVYLQMNSLKPEDTAVYYCAAESWPPLCHYSGMDYWGKGTQVTVSS
For B4, the binding result in series [6] was “binds”; in series [7], “binds”; in [8], “binds”; in series [9] it was “no binding”; in [4], “no binding”; in [5], “binds”.
